Article PMC2213499 (The Journal of Experimental Medicine, 2000)

Biological target: Complement C1q (human, UniProt P02745 23-245; P02746 28-253; P02747 29-245)
Assay: ELISA

Chain of Complement C1q (P02745 23-245, chain 1 of 3): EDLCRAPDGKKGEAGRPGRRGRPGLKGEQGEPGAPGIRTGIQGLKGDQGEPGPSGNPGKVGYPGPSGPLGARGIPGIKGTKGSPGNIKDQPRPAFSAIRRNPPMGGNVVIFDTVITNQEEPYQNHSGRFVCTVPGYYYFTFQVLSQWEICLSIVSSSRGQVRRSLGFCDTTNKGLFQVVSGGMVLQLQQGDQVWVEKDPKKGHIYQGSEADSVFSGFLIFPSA
Chain of Complement C1q (P02746 28-253, chain 2 of 3): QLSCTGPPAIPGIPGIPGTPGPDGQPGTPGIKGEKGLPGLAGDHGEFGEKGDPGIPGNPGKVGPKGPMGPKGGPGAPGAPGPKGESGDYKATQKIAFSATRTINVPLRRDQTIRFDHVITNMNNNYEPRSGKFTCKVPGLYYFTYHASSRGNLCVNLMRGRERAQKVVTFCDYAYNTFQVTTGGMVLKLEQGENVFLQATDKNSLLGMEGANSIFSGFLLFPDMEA
Chain of Complement C1q (P02747 29-245, chain 3 of 3): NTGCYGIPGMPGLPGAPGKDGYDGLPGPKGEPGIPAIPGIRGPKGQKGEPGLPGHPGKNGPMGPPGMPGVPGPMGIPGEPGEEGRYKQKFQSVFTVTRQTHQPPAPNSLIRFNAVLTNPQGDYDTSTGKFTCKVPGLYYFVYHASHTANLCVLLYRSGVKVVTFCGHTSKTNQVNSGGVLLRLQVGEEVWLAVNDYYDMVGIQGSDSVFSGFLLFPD

- binding result: binds
B1: Recombinant soluble complement receptor 1 (sCR1) (domain or fragment)
chain: not shown
modifications: 125I in the radioligand assays with immobilised MBL; unlabelled elsewhere
